Our source for the Kd values is article PMC2760644.

This assay concerns the target F-actin (chicken) (UniProt P68139). Kind of assay: co-sedimentation.

pKd: −log10 of the molar value.

Consider “supervillin headpiece L38K point mutant (domain or fragment)”, for which the pKd (as a rule, −log10 of the Kd, conventionally taken in molar units) was 4.06.
